Source: US20080085859A1, “Drug Promoting Ceramide Transport, Base Sequence for Producing the Drug, Method of Measuring Activity of Promoting Ceramide Release and Method of Measuring Activity of Promoting Intermembrane Ceramide Transfer” (JAPAN SCIENCE AND TECHNOLOGY AGENCY, priority 2003, published 2008)

How the values were obtained:
Format in all cases: cell-based, Chinese hamster
LY-A cell = experiment: recovery of ceramide transport function of LY-A cell by hCERT stable expression; conditions: FIG. 9
From the text: Also in the original LY-A cell to which retrovirus receptor has not been introduced, it has been ascertained as described below that ceramide transport function is recovered by hCERT expression. hCERT inserted pcDNA3.1/Neo plasmid was introduced into LY-A cell by performing lipofection, after G418 resistant cell was selected, transformed strain LY-A/hCERT was purified by a limited-dilution. Subsequently, the measurement of the sensitivity to MCD, metabolism labeling experiment of lipid using [^14C] serine and [^14C] choline and cell labeling using C5-DMB-Cer and fluorescene microscopy observation were similarly performed.

LY-A2 cell [1] = experiment: metabolism labeling of lipid using [14C] serine and [14C] choline; conditions: LY-A2/hCERT cell
Experimental: CHO-K1 cell, LY-A2 cell, and LY-A2/hCERT cell were inoculated at the cell density of 1.0×10^6 per culture dish having the 60-mm diameter, and cultured at 33° C. overnight. Subsequently, it was exchanged with […] of Nutridoma medium, after [^14C] serine (0.75 μCi) or [^14C] choline (1.0 μCi) have been added, in the case where [^14C] serine is added, it was cultured for 2 hours, and in the case where [^14C] choline is added, it was cultured at 33° C. for 5 hours. However, in the case where the influence on (1R, 3R) HPA-12 is analyzed, after it was pretreated at […] for 15 minutes in 1.5 mL of Nutridoma medium to which 1 μM of (1R,3R) HPA-12 has been added (in control experiment, dimethylsulfoxide used for dissolving a drug was added at the concentration corresponding to 0.01% of the final concentration), [^14C] serine was added, and cultured at 33° C. for 2 hours. After the cell was washed twice in 2 mL of cooled PBS, dissolved in 900 μL of sodium dodecyl sulfate (SDS), then, 800 μL and 20 μL of dissolved matter were used for determining lipid extraction and protein concentration. For the purpose of analyzing lipid labeled with [^14C] serine, the lipid was separated by TLC by making acetic methyl/n-propanol/chloroform/methanol/0.25% KCl (25:25:25 10:9, volume ratio) development solvent. The radioactive lipid separated on the plate was detected and analyzed by an image analyzer.

LY-A2 cell [2] = experiment: sensibility to MCD and lysenin (MTT)
Experimental: 100 thousand pieces of cells per each well of a 12-well culture dish were inoculated in 1 mL of F12/NBS culture medium and cultured at 33° C. overnight. After Cells existed on the culture dish was washed twice in 1 mL of serum-free F12 medium, 1 mL of 10 mM MCD/F12 or lysenin (25 ng/mL)/F12 was added. It should be noted that culture medium in which 1 mL of only serum-free F12 has been added was made control. After it has been incubated at 37° C. for one hour, it was washed twice in 1 mL of phosphate buffered saline (PBS). Subsequently, 1 mL of MTT (0.5 mg/mL)/F12 was added and incubated at 37° C. for one hour. The relative amount of the generated reduced form of MTT was measured by a method of reference literature written by Hanada et al (J. Biol. Chem. 273, 33787-33794, 1998).
The relevant gene was expressed in LY-A2 cell by making virus particle derived from retrovirus vector infect it prepared in the foregoing paragraph. Specifically, the relevant gene was expressed in LY-A2 cell by making virus particle derived from pLIB/hCERT. In the case where hCERT was expressed, the purified transformed strain was also separated by a ultradilution method, and this strain was named as LY-A2/hCERT. After it has been cultured for days, the sensitivity to MCD and lysenin was examined by the above-described method. […]

B1: hCERT protein: human CERT protein having an amino acid sequence of SEQ ID NO:1 (protein)
chain: MSDNQSWNSSGSEEDPETESGPPVERCGVLSKWTNYIHGWQDRWVVLKNNALSYYKSEDETEYGCRGSICLSKAVITPHDFDECRFDISVNDSVWYLRAQDPDHRQQWIDAIEQHKTESGYGSESSLRRHGSMVSLVSGASGYSATSTSSFKKGHSLREKLAEMETFRDILCRQVDTLQKYFDACADAVSKDELQRDKVVEDDEDDFPTTRSDGDFLHSTNGNKEKLFPHVTPKGINGIDFKGEAITFKATTAGILATLSHCIELMVKREDSWQKRLDKETEKKRRTEEAYKNAMTELKKKSHFGGPDYEEGPNSLINEEEFFDAVEAALDRQDKIEEQSQSEKVRLHWPTSLPSGDAFSSVGTHRFVQKVEEMVQNHMTYSLQDVGGDANWQLVVEEGEMKVYRREVEENGIVLDPLKATHAVKGVTGHEVCNYFWNVDVRNDWETTIENFHVVETLADNAIIIYQTHKRVWPASQRDVLYLSVIRKIPALTENDPETWIVCNFSVDHDSAPLNNRCVRAKINVAMICQTLVSPPEGNQEISRDNILCKITYVANVNPGGWAPASVLRAVAKREYPKFLKRFTSYVQEKTAGKPILF
modifications: HeLa cell
With B1 the “reactivity with respect to MCD, SM biosynthesis, C5-DMB-Cer transfer from ER to Golgi apparatus region” value (LY-A cell) was “recovered to the nature of the wild type”, the PC synthesizing rate (LY-A2 cell [1]; radioactive choline, FIG. 4(B)) was “at the wild type level” and the SM biosynthesizing rate (LY-A2 cell [1]; radioactive choline, FIG. 4(B)) was “recovered to the wild type level”. The SM biosynthesis speed (LY-A2 cell [1]; radioactive serine, FIG. 4(A)) was “recovered to the wild type level”, the “MCD resistance and lysenin sensitivity” value (LY-A2 cell [2]; LY-A2 infected with virus particle derived from pLIB/hCERT, FIG. 2) was “significantly acquired MCD resistance and lysenin sensitivity” and the “sensitivity to MCD and lysenin” value (LY-A2 cell [2]; purified LY-A2/hCERT cell, FIG. 3(A)) was “approximately the same level as the sensitivity seen in the wild type CHO-K1 cell”.
